Values quoted from earlier work in publication PMC7221163.

Biological target: insulin receptor (HIR) (Homo sapiens) (UniProt P06213)
Assay: radioreceptor assay

Sequence of insulin (P01308 90-110): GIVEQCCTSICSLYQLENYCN

Kd: 1.2 nM
Substance: insulin (from UniProt P01308)
